Reference: patent US20090170751A1 (published 2009)

Legend:
Assay in all cases: ELISA-type assay, F3 module coated
[1] = molecular target: T1, Recombinant fibronectin module ^1F3 (Homo sapiens (Human), UniProt P02751 608-700)
T1 construct: Expressed with N-terminal His-tag, purified by Ni-NTA and ion-exchange chromatography; also called ^1F3 module

[2] = molecular target: Recombinant fibronectin module ^3F3 (Homo sapiens (Human), UniProt P02751 810-900)
[3] = molecular target: T2, Recombinant fibronectin modules ^1-2F3 (Homo sapiens (Human), UniProt P02751 608-809)
T2 construct: Expressed with N-terminal His-tag
T2 sequence (P02751 608-809 limits assumed): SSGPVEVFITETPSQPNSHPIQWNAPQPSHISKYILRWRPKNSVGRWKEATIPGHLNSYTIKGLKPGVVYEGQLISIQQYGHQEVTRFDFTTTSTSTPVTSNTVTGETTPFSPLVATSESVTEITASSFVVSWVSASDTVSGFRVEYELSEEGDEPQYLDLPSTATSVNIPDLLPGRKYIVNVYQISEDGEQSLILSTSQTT

Measured: binding result

Sequence of Recombinant fibronectin module ^3F3 (P02751 other isoform, or with tags, fused parts or gaps limits assumed): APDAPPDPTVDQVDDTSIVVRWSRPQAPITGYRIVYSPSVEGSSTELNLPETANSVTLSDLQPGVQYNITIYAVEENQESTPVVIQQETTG
T1 sequence (P02751 608-700 limits assumed): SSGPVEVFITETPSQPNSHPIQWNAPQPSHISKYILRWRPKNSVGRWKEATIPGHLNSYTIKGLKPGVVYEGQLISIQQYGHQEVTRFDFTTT

B1: FnbpA peptide D3 (S. aureus fibronectin-binding peptide) (peptide)
peptide: GFNKHTEIIEEDTNKDKPSYQFGGHNSVDFEEDTLPK
notes: domain: D3; also called peptide D3 from FnbpA; D3 fragment of S. aureus FnbpA
no binding: all assays above
